Experimental data taken from patent US20120077731A1 (Ablynx, published 2012).
Values joined by “and” are separate entries in the source; they are usually repeats but may differ in a detail not shown here. Identical values can stand only once.

T1: Human plasma sIL-6R (human, UniProt P08887 20-355, limits assumed)
T1 construct: also called plasma-derived human IL-6R
T1 sequence (looked up): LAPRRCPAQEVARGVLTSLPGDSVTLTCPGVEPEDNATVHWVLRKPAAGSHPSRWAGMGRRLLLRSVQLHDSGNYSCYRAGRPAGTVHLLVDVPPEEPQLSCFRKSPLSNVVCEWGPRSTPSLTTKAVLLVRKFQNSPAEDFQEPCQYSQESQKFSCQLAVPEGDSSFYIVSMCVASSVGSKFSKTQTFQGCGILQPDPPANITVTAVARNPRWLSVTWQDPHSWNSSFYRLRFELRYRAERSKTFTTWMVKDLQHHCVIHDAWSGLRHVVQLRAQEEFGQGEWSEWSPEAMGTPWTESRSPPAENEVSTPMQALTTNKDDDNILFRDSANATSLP

T2: Mouse IL-6R (mouse, UniProt P22272 20-364, limits assumed)
T2 construct: also called mouse sIL-6R
T2 sequence (looked up): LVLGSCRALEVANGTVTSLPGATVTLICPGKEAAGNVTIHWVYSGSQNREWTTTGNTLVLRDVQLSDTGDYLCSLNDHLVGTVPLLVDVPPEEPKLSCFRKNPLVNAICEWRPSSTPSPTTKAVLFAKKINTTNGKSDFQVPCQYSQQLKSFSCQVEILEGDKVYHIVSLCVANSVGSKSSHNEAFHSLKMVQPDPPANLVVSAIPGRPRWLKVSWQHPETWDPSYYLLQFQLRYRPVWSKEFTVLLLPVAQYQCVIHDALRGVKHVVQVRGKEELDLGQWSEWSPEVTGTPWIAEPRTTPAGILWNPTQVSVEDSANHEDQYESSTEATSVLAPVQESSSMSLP

T3: Cyno plasma sIL-6R (cynomolgus monkey, UniProt A0A2K5WN54 60-396)
T3 construct: also called cynomolgus sIL-6R
T3 sequence: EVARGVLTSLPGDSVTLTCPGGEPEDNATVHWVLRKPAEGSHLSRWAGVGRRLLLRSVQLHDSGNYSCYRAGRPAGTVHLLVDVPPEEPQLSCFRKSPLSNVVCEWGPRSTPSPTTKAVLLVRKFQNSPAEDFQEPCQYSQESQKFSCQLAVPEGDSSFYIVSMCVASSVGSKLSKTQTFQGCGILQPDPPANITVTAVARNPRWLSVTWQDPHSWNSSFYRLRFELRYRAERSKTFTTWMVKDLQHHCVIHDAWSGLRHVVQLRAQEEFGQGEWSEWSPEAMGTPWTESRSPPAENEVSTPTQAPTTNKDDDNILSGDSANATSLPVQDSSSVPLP

T4: Human membrane IL-6R on cells (human, UniProt P08887 20-468)
T4 sequence (looked up): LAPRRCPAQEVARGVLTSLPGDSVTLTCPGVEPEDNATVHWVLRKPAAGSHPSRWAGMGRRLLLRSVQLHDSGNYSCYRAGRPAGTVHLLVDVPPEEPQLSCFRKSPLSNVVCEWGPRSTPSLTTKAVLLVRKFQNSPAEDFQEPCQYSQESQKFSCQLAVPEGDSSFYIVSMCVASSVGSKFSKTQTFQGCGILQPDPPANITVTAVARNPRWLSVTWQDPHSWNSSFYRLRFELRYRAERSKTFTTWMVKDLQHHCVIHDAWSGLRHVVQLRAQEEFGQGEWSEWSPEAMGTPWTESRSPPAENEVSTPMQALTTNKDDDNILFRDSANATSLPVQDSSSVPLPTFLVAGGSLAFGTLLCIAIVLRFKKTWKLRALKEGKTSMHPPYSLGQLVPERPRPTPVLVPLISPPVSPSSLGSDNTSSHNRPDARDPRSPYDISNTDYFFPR

T5: Cyno IL-6R (cynomolgus monkey, UniProt A0A2K5WN54 60-396)
T5 construct: also called cynomolgus monkey IL-6R; recombinant cyno sIL-6R
T5 sequence: T3 sequence

B1: Reference Fab (Fab, V domains shown)
VH: QVQLQESGPGLVRPSQTLSLTCTVSGYSITSDHAWSWVRQPPGRGLEWIGYISYSGITTYNPSLKSRVTMLRDTSKNQFSLRLSSVTAADTAVYYCARSLARTTAMDYWGQGSLVTVSS
VL: DIQMTQSPSSLSASVGDRVTITCRASQDISSYLNWYQQKPGKAPKLLIYYTSRLHSGVPSRFSGSGSGTDFTFTISSLQPEDIATYYCQQGNTLPYTFGQGTKVEIKR
notes: Built from RVLa and RVHf of EP 0628639; expressed in E. coli periplasm
B2: IL6R04 (VHH)
VHH: EVQLVESGGGLVQAGGSLRLSCAASGFTFDDYDIGWFRQAPGKEREGVSGISSSDGNTYYADSVKGRFTISSDNAKNTVYLQMNSLKPEDTAVYYCAAEPPDSSWYLDGSPEFFKYWGQGTQVTVSS
notes: also called PMP32C9; not shown: C-terminal c-myc and (His)6 tags
B3: Human soluble IL-6R (receptor, UniProt P08887 20-358, looked up)
chain: LAPRRCPAQEVARGVLTSLPGDSVTLTCPGVEPEDNATVHWVLRKPAAGSHPSRWAGMGRRLLLRSVQLHDSGNYSCYRAGRPAGTVHLLVDVPPEEPQLSCFRKSPLSNVVCEWGPRSTPSLTTKAVLLVRKFQNSPAEDFQEPCQYSQESQKFSCQLAVPEGDSSFYIVSMCVASSVGSKFSKTQTFQGCGILQPDPPANITVTAVARNPRWLSVTWQDPHSWNSSFYRLRFELRYRAERSKTFTTWMVKDLQHHCVIHDAWSGLRHVVQLRAQEEFGQGEWSEWSPEAMGTPWTESRSPPAENEVSTPMQALTTNKDDDNILFRDSANATSLPVQD
notes: Soluble recombinant form; biotinylated in some assays; also called hIL-6R; human IL-6R
B4: IL6R02 (VHH)
VHH: EVQLVESGGGLVQAGGSLRLSCAASGRTFSSYDMGWYRQAPGKEREFVAVISRSGSSTYYADSVKGRFTISRDNAKNTVYLQMNSLKPEDTAIYYCKAEVVAGDYDYWGQGTQVTVSS
notes: also called PMP30C11; not shown: C-terminal c-myc and (His)6 tags

Assays:
Human plasma sIL-6R [1] = biological target: T1, Human plasma sIL-6R; assay: plasma potency ELISA, human plasma + human IL-6 50 ng/mL; sIL-6R captured on BN-12, bound IL-6 detected; blocked ligand IL-6
Human plasma sIL-6R [2] = biological target: T1, Human plasma sIL-6R; assay: plasma potency ELISA, human plasma, IL-6 at EC95 (885 ng/mL)
Mouse IL-6R [3] = biological target: T2, Mouse IL-6R; assay: ELISA: plate coated with 1 µg/ml mouse IL-6R; concentration and detection of this control not told
Human plasma sIL-6R [4] = biological target: T1, Human plasma sIL-6R; assay: plasma potency ELISA, human plasma, IL-6 at EC50 (50 ng/mL)
Cyno plasma sIL-6R = biological target: T3, Cyno plasma sIL-6R; assay: plasma potency ELISA, cyno plasma + human IL-6 50 ng/mL; sIL-6R captured on BN-12, bound IL-6 detected; blocked ligand IL-6
[5] = biological target: T4, Human membrane IL-6R on cells; assay: cell-based or functional assay
[6] = biological target: T4, Human membrane IL-6R on cells; assay: cell-based or functional assay; remark: listed apart in the source
Human soluble IL-6R [7] = biological target: B3; assay: Alphascreen, inhibition of bio-IL-6 binding to IL-6R
Description: (§1) Finally streptavidin donor beads were added and after 1 hour incubator the plate was read on the Envision microplate reader.

[8] = biological target: T4, Human membrane IL-6R on cells; assay: cell-based or functional assay; remark: listed apart in the source
Human soluble IL-6R [9] = biological target: B3; assay: competition for IL-6R, competitor reference Fab, summary table C-13
[10] = biological target: T4, Human membrane IL-6R on cells; assay: cell-based or functional assay; remark: listed apart in the source
Human soluble IL-6R [11] = biological target: B3; assay: Alphascreen, 100 nM Nanobody, 0.4 nM bio-IL-6R; competitor: reference Fab
Cyno IL-6R = biological target: T5, Cyno IL-6R; assay: SPR Biacore 3000, cyno IL-6R amine-coupled to CM5
Description: Remaining reactive groups were inactivated. […] Each sample was injected for 4 min at a flow rate of 45 μl/min to allow for binding to chip-bound antigen. Next, binding buffer without Nanobody was sent over the chip at the same flow rate to allow for dissociation of bound Nanobody.

Human plasma sIL-6R [12] = biological target: T1, Human plasma sIL-6R; assay: plasma potency ELISA in human plasma at the EC95 of IL-6 (885 ng/mL); blocked ligand IL-6
Human soluble IL-6R [13] = biological target: B3; assay: SPR Biacore 3000, IL-6R amine-coupled to CM5
Description: (§2) Nanobodies were injected at 5 different concentrations between 1 and 50 nM. Flow rate was 45 μl/min in all experiments. Association and dissociation phase were 3 and 10 min, respectively. The chip was regenerated using Glycine/HCl pH 1.5.

Human soluble IL-6R [14] = biological target: B3; assay: Alphascreen IL-6/IL-6R competition (IL-6R 0.3 nM, bio-IL-6 3 nM); row EC50 of the fit table, axis [competitor], M; blocked ligand IL-6
[15] = biological target: T4, Human membrane IL-6R on cells; assay: cell-based or functional assay; remark: listed apart in the source
Human soluble IL-6R [16] = biological target: B3; assay: Alphascreen, inhibition of bio-IL-6 binding to IL-6R; remark: listed apart in the source
Description: as §1

Human soluble IL-6R [17] = biological target: B3; assay: summary table C-13 of Nanobody characteristics, Kd on IL-6R
Description: as §2

Human plasma sIL-6R [18] = biological target: T1, Human plasma sIL-6R; assay: plasma potency ELISA in human plasma at the EC50 of IL-6 (50 ng/mL); blocked ligand IL-6
Human soluble IL-6R [19] = biological target: B3; assay: inhibition of the IL-6/IL-6R interaction, summary table C-13
Description: as §1

Human soluble IL-6R [20] = biological target: B3; assay: Biacore, binding to IL-6R (parent value)
Human soluble IL-6R [21] = biological target: B3; assay: Alphascreen IL-6/IL-6R competition with purified Nanobody; row EC50 of the table, axis [inhibitor], M; blocked ligand IL-6
Human soluble IL-6R [22] = biological target: B3; assay: Biacore off-rate, periplasmic extract
Mouse IL-6R [23] = biological target: T2, Mouse IL-6R; assay: ELISA: plate coated with 1 µg/ml mouse IL-6R, 500 nM Nanobody, anti-myc + anti-mouse-HRP
Description: Detection was performed with anti-myc and anti-mouse-HRP as first and second antibody respectively.

PMP20A11 [24] = biological target: T6, PMP20A11; assay: competitive binding ELISA, 0.05 nM IL6R20A11 pre-incubated with sIL-6R, free Nanobody captured on sIL-6R
T6 construct: also called IL6R20A11; IL6R300; not shown: c-myc and (His)6 tags

PMP20A11 [25] = biological target: T6, PMP20A11; assay: competition ELISA: IL6R20A11 (0.4 nM) pre-incubated with a series of recombinant sIL-6R; free IL6R20A11 captured on biotinylated human sIL-6R on neutravidin
Human soluble IL-6R [26] = biological target: B3; assay: SPR Biacore 3000, IL-6R amine-coupled to CM5; second koff of IL6R02; the one that fits kon and Kd
Description: as §2

Binder	IC50 (nM), TF1 cell proliferation [5] [nM]	IC50 (nM), XG-1 cell proliferation [6] [nM]	Ref Fab competition (%) (Human soluble IL-6R [9])	IC50 (nM) XG-1 [10] [nM]	Residual reference-Fab binding to IL-6R (%) (Human soluble IL-6R [11])	Kd (Human soluble IL-6R [13]) [nM]	koff (Human soluble IL-6R [13])	kon (Human soluble IL-6R [13]) [M⁻¹ s⁻¹]	IC50 (Human soluble IL-6R [16]) [nM]	Kd (Human soluble IL-6R [17]) [nM]	IC50 (Human soluble IL-6R [19]) [nM]	koff (Human soluble IL-6R [22]) [s⁻¹]	binding result (Mouse IL-6R [23])	other results
B1	9.2	6	–	–	–	–	–	–	–	–	–	–	–	IC50 (read off the curve) (Human plasma sIL-6R [1]): ~0.3 nM; IC50 (Human plasma sIL-6R [2]): 8.47 nM; binding result (Mouse IL-6R [3]): no binding (tested: not given); IC50 (Human plasma sIL-6R [4]): 0.55 nM; IC50 (read off the curve) (Cyno plasma sIL-6R): ~0.1 nM; IC50 (Human soluble IL-6R [7]): 0.592 nM; IC50 (nM), TF-1 proliferation at 100 IU/mL IL-6 [8]: 6.26 nM
B2	0.4	0.1	50	0.1	50	0.3	9.42e-05 s⁻¹ and 0.00015 s⁻¹	365000	0.093	0.3	0.09	0.00015	no binding (tested: 500 nM)	Kd (Cyno IL-6R): 171 nM; koff (Cyno IL-6R): 0.01 s⁻¹; kon (Cyno IL-6R): 58600 M⁻¹ s⁻¹; IC50 (read off the curve) (Human plasma sIL-6R [12]): ~0.4 nM; IC50 (Human soluble IL-6R [14]): 0.18 nM; IC50 values (nM), XG-1 assay [15]: 0.1 nM; IC50 (nM) + HSA, XG-1 cell proliferation [6]: 0.1 nM; IC50 (read off the curve) (Human plasma sIL-6R [18]): ~0.2 nM; Kd (Human soluble IL-6R [20]): 0.3 nM; IC50 (Human soluble IL-6R [21]): 0.0568 nM
B3	–	–	–	–	–	–	–	–	–	–	–	–	–	IC50 (PMP20A11 [24]): 0.03 nM; IC50 (read off the curve) (PMP20A11 [25]): ~1 ng/mL
B4	94.7	31	86	31	86	5.9	0.00294 s⁻¹	840000	1.69	5.9	1.69	0.00294	no binding (tested: 500 nM)	koff (Human soluble IL-6R [26]): 0.00495 s⁻¹
